Measurements reported in patent US6740739B1, “Substitutional variants of APO-2 ligand” (Genentech, Inc., priority 1998, dated 2004).

Key:
Type in all cases: cell-based, human
ME-180 = test: Cell viability by crystal violet staining
Description: (§1) The following human tumor cell lines were assayed: A549 (lung carcinoma, ATCC CCL 185); HCT116 (colon carcinoma, ATCC CCL 247); SW480 (colon adenocarcinoma, ATCC CCL 228); MDA231 (breast adenocarcinoma, ATCC HTB 26); HeLa (cervical carcinoma, ATCC CCL 22); ME-180 (cervical carcinoma, ATCC HTB 33); T24 (bladder carcinoma. ATCC HTB 4); SK-N-AS (neuroblastoma, White et al., Proc. Natl. Acad. Sci., 92:5520-5524 (1995)). The cells were plated at 2.5×10^5 cells/ml in 96 well plates and incubated overnight. The cells were cultured in the presence of 2-fold dilutions of Apo-2 ligand (ranging from 100 ng/ml to 0.01 ng/ml). In some of the cultures, a chemotherapeuticagent was also added for 24 hours-cyclohexamide (“CHX”) (50 μg/ml; Sigma Chemicals), Doxorubicin (10-100 μg/ml; Pharmacia), or 5-FU (6 mg/ml; Roche). After 24 hours of incubation, the cells were stained with 0.5% crystal-violetin 20% methanol. Cell viability was determined by eluting the dye from the stained cells with 0.1M sodium citrate (0.1M citric acid in 50% methanol), and measuring absorbance at 540 nm.

T24 = test: Cell viability by crystal violet staining
Description: as §1

B lymphocytes = test: Apoptosis by FACS in peripheral blood B cells; conditions: Apo-2 ligand 3 μg/ml, 3 days, mean ±SE
Description: Peripheral blood mononuclear cells (“PBMC&”) were isolated from the blood of human donors by Ficoll density gradient centrifugation using Lymphocyte Separation Medium (LSM®, Organon Teknika). An isolated population of T cells was prepared from the PBMC by removal of B cells through surface Ig binding to an anti-Ig column and removal of monocytes through Fc receptor binding to an Ig column (R & D Systems). An isolated population of B cells was prepared from the PBMC by complement-mediatedelimination of T cells reacted with the anti-CD3 antibody produced by the OKT3 myeloma (ATCC, CRL 8001) and of monocytes reacted with a monocyte-specific antibody produced by the 4F2C13 hybridoma (ATCC, HB 22). Additional monocyte removal was accomplished by adherence to plastic.
The freshly isolated peripheral blood B or T cells (1×10^6 cells/well) were cultured for 3 days in the presence of a media control or Apo-2 ligand (3 μg/ml, prepared as described in Example 3). […] Apoptosis was determined using FACS analysis essentially as described above in Example 4. […] The results are shown in Table 2 below, representing means ±SE of independent experiments [B lymphocytes—9 experiments; T lymphocytes—8 experiments; T lymphocytes plus IL-2-5 experiments], in which 50,000 cells were analyzed per data point. […]

Jurkat cells = test: Apoptosis by FACS (PI / FITC-annexin V); conditions: Apo-2 ligand 3 μg/ml, 24 hours, control 5.9
Description: (§2) The effects of the Apo-2 ligand on the 9D cells, as well as on Raji cells (human Burkitt's lymphoma B cell line, ATCC CCL 86) and Jurkat cells (human acute T cell leukemia cell line, ATCC TIB 152) were further analyzed by FACS. The FACS analysis was conducted, using established criteria for apoptotic cell death, namely, the relation of fluorescence staining of the cells with two markers: (a) propidium iodide (“PI”) dye, which stains apoptotic but not live cells, and (b) a fluorescent derivative of the protein, annexin V, which binds to the exposed phosphatidylserine found on the surface of apoptotic cells, but not on live cells [Darzynkiewicz et al., Methods in Cell Biol., 41:15-38 (1994); Fadok et al., J. Immunol., 148:2207-2216 (1992); Koopman et al., Blood, 84:1415-1420 (1994)].
(§3) The 9D cells (FIG. 2B), Raji cells (FIG. 2C), and Jurkat cells (FIG. 2D) were incubated (1×10^6 cells/well) for 24 hours with a media control (left panels), Apo-2 ligand (3 μg/ml, prepared as described in Example 3) (center panels), or anti-Apo-1 ligand antibody, CH11 (1 μg/ml) (right panels). The cells were then washed, stained with PI and with fluorescein thiocyanate (FITC)-conjugatedannexin V (purchased from Brand Applications) and analyzed by flow cytometry. […]

Raji cells = test: Apoptosis by FACS (PI / FITC-annexin V); conditions: Apo-2 ligand 3 μg/ml, 24 hours, control 35.9
Description: as §2, §3

A549 = test system: A549
Description: as §1

MDA231 = test system: MDA231
Description: as §1

HCT116 = test system: HCT116
Description: as §1

SW480 = test system: SW480
Description: as §1

B1: Apo-2L: purified soluble His10-tagged human Apo-2 ligand, residues 114-281, from baculovirus-infected Sf9 cells (Example 3); used in Examples 4-14 (protein)
chain: MGHHHHHHHHHHSSGHIDDDDKHMVRERGPQRVAAHITGTRGRSNTLSSPNSKNEKALGRKINSWESSRSGHSFLSNLHLRNGELVIHEKGFYYIYSQTYFRFQEEIKENTKNDKQMVQYIYKYTSYPDPILLMKSARNSCWSKDAEYGLYSIYQGGIFELKENDRIFVSVTNEHLIDMDHEASFFGAFLVG
How did the “Apo-2L sensitivity ENHANCED BY Dox” value (ME-180; ME180, Doxorubicin 10-100 μg/ml, 24 hours) turn out when B1 was run?
The value was “yes”.

And the “Apo-2L sensitivity ENHANCED BY CHX” value (ME-180; ME180, cyclohexamide 50 μg/ml, 24 hours)?
The value was “yes”.

And the “Apo-2L SENSITIVITY” value (ME-180; ME180 cervical carcinoma, p53 WT, 24 h)?
Its value is “++ (>70% death after 24 h with 100 ng/ml Apo-2L)”.

And the “Apo-2L sensitivity ENHANCED BY Dox” value (T24; T24, Doxorubicin 10-100 μg/ml, 24 hours)?
The value was “yes”.

And the “Apo-2L sensitivity ENHANCED BY CHX” value (T24; T24, cyclohexamide 50 μg/ml, 24 hours)?
Its value is “yes”.

And the “Apo-2L SENSITIVITY” value (T24; T24 bladder carcinoma, p53 mut, 24 h)?
Its value is “+++ (>70% death after 24 h with 10 ng/ml Apo-2L)”.

What about the “% apoptolic cells” value (B lymphocytes; LPS 1 μg/ml, control 44.8 ± 2.8, a=p<0.05) of the same molecule?
Its value is 55.9 ± 3.2^a %.

And the “% apoptolic cells” value (B lymphocytes; treatment none, control 40.1 ± 4.1, a=p<0.05)?
The value was 53.2 ± 3.3^a %.

And the “% apoptotic cells” value (Jurkat cells)?
Its value is 77.0%.

And the “% apoptotic cells” value (Raji cells)?
Its value is 73.4%.

And the “Apo-2L sensitivity ENHANCED BY 5-FU” value (A549)?
The value was “yes”.

What about the “Apo-2L sensitivity ENHANCED BY Dox” value (A549; A549, Doxorubicin 10-100 μg/ml, 24 hours) of the same molecule?
The value was “yes”.

What about the “Apo-2L sensitivity ENHANCED BY CHX” value (A549; A549, cyclohexamide 50 μg/ml, 24 hours) of the same molecule?
Its value is “yes”.

And the “Apo-2L SENSITIVITY” value (A549; A549 lung carcinoma, p53 WT, 24 h)?
The value was “++ (>70% death after 24 h with 100 ng/ml Apo-2L)”.

What about the “Apo-2L sensitivity ENHANCED BY 5-FU” value (MDA231) of the same molecule?
Its value is “yes”.

What about the “Apo-2L sensitivity ENHANCED BY Dox” value (MDA231; MDA231, Doxorubicin 10-100 μg/ml, 24 hours) of the same molecule?
Its value is “yes”.

And the “Apo-2L sensitivity ENHANCED BY CHX” value (MDA231; MDA231, cyclohexamide 50 μg/ml, 24 hours)?
The value was “yes”.

What about the “Apo-2L SENSITIVITY” value (MDA231; MDA231 breast carcinoma, p53 mut, 24 h) of the same molecule?
The value was “++ (>70% death after 24 h with 100 ng/ml Apo-2L)”.

And the “Apo-2L sensitivity ENHANCED BY 5-FU” value (HCT116)?
The value was “yes”.

What about the “Apo-2L sensitivity ENHANCED BY Dox” value (HCT116; HCT116, Doxorubicin 10-100 μg/ml, 24 hours) of the same molecule?
The value was “yes”.

And the “Apo-2L sensitivity ENHANCED BY CHX” value (HCT116; HCT116, cyclohexamide 50 μg/ml, 24 hours)?
Its value is “yes”.

And the “Apo-2L SENSITIVITY” value (HCT116; HCT116 colon carcinoma, p53 mut, 24 h)?
Its value is “++ (>70% death after 24 h with 100 ng/ml Apo-2L)”.

What about the “Apo-2L sensitivity ENHANCED BY 5-FU” value (SW480) of the same molecule?
Its value is “yes”.

What about the “Apo-2L sensitivity ENHANCED BY Dox” value (SW480; SW480, Doxorubicin 10-100 μg/ml, 24 hours) of the same molecule?
The value was “yes”.

What about the “Apo-2L sensitivity ENHANCED BY CHX” value (SW480; SW480, cyclohexamide 50 μg/ml, 24 hours) of the same molecule?
The value was “yes”.

And the “Apo-2L SENSITIVITY” value (SW480; SW480 colon carcinoma, p53 mut, 24 h)?
Its value is “++ (>70% death after 24 h with 100 ng/ml Apo-2L)”.
